Target: the molecule itself
Test: non-reducing SDS-PAGE; serum proteins pulled down by immobilised LL37, 15% non-reducing SDS-PAGE, Coomassie; monomer to dimer

B1: apolipoprotein A-II (Apo-AII) of human serum (natural protein)
chain: not shown
notes: Dimeric under non-reducing conditions; In serum it stands in HDL particles together with lipids; also called 17 kDa protein; source: endogenous, crude human serum
stoichiometry N: 2

— paper PMC8850444, “The lipid components of high-density lipoproteins (HDL) are essential for the binding and transportation of antimicrobial peptides in human serum” (Scientific Reports, 2022)
